Data from publication PMC10397247.

Experiments:
Test in all cases: two-hybrid library CCNG1;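 further: natural log of median RNA to DNA barcode read ratio; higher means stronger binding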
O9-bH = molecular target: T1, O9-bH
T1 chain: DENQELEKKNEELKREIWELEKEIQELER

O7-bH = molecular target: T2, O7-bH
T2 chain: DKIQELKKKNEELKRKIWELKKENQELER

O3-bH = molecular target: T3, O3-bH
T3 chain: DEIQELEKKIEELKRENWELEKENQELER

O6-bH = molecular target: T4, O6-bH
T4 chain: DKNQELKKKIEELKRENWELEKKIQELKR

O8-bH = molecular target: T5, O8-bH
T5 chain: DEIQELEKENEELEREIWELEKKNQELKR

O5-bH = molecular target: T6, O5-bH
T6 chain: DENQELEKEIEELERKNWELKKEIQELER

O4-bH = molecular target: T7, O4-bH
T7 chain: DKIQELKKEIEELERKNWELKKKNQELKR

4H883-bA = molecular target: T8, 4H883-bA
T8 chain: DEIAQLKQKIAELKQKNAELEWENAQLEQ

4H3606-bA = molecular target: T9, 4H3606-bA
T9 chain: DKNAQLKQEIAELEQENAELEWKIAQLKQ

4H3843-bA = molecular target: T10, 4H3843-bA
T10 chain: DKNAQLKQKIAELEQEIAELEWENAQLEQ

4H72-bA = molecular target: T11, 4H72-bA
T11 chain: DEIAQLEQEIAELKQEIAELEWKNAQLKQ

4H607-bA = molecular target: T12, 4H607-bA
T12 chain: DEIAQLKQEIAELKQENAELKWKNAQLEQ

4H370-bA = molecular target: T13, 4H370-bA
T13 chain: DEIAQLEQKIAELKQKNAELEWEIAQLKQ

4H3189-bA = molecular target: T14, 4H3189-bA
T14 chain: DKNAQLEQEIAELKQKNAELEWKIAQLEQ

4H953-bA = molecular target: T15, 4H953-bA
T15 chain: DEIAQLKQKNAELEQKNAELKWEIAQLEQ

4H967-bA = molecular target: T16, 4H967-bA
T16 chain: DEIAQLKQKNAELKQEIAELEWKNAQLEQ

4H3782-bA = molecular target: T17, 4H3782-bA
T17 chain: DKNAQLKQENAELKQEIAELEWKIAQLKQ

4H918-bA = molecular target: T18, 4H918-bA
T18 chain: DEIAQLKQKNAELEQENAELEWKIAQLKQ

4H797-bA = molecular target: T19, 4H797-bA
T19 chain: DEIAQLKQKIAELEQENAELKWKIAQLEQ

4H687-bA = molecular target: T20, 4H687-bA
T20 chain: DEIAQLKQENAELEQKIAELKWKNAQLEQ

4H462-bA = molecular target: T21, 4H462-bA
T21 chain: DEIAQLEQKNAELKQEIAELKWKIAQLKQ

4H568-bA = molecular target: T22, 4H568-bA
T22 chain: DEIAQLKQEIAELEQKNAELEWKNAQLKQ

4H331-bA = molecular target: T23, 4H331-bA
T23 chain: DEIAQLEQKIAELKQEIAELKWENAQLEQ

4H2697-bA = molecular target: T24, 4H2697-bA
T24 chain: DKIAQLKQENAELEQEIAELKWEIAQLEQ

4H4001-bA = molecular target: T25, 4H4001-bA
T25 chain: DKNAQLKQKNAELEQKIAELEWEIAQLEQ

4H3041-bH = molecular target: T26, 4H3041-bH
T26 chain: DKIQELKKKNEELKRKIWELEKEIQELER

O8-bP = molecular target: T27, O8-bP
T27 chain: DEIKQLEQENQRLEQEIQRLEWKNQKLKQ

4H470-bN = molecular target: T28, 4H470-bN
T28 chain: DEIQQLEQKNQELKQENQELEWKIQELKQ

DEIQELEKKIEELKRENWELEKENQELER [O3-bH]
interaction score (O9-bH): -0.716
interaction score (O7-bH): -0.247
interaction score (O3-bH): -0.176
interaction score (O6-bH): -0.104
interaction score (O8-bH): 0.212
interaction score (O5-bH): -0.92
interaction score (O4-bH): 2.01

DKIAQLKQENAELEQEIAELKWEIAQLEQ [4H2697-bA]
interaction score (4H883-bA): -1.53
interaction score (4H3606-bA): -1.7
interaction score (4H3843-bA): -0.367
interaction score (4H72-bA): -1.03
interaction score (4H607-bA): -1.17
interaction score (4H370-bA): -1.13
interaction score (4H3189-bA): -1.34
interaction score (4H953-bA): -1.44
interaction score (4H967-bA): -0.359
interaction score (4H3782-bA): 0.993
interaction score (4H918-bA): -0.926
interaction score (4H797-bA): -0.734
interaction score (4H687-bA): -1.08
interaction score (4H462-bA): 2.04
interaction score (4H568-bA): -1.82
interaction score (4H331-bA): -1.52
interaction score (4H2697-bA): -0.377
interaction score (4H4001-bA): -0.951
interaction score (4H3041-bH): 1.02

DENQELEKKNEELKRKIWELKKKIQELKR [O2-bH]
interaction score (O8-bP): -0.645
interaction score (O9-bH): 0.854
interaction score (O7-bH): -0.662
interaction score (O3-bH): 0.993
interaction score (O6-bH): 0.712
interaction score (O8-bH): 0.211
interaction score (O5-bH): -1.53
interaction score (O4-bH): -0.611

DEIQQLEQKNQELKQENQELEWKIQELKQ [4H470-bN]
interaction score (4H470-bN): -0.484
